The chains are these.
B1: RTN1 (parent)
chain: VVAYLALAALSATISFRIYKSVLQ
B2: SNAP91 (parent)
chain: FAAPSPATTASPAKVDSSGVIDLF
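Also: lentivirally expressed fusions sorted by FACS into six bins by GFP to DsRed ratio, PSI derived from sequencing read proportions per bin multiplied by bin number.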

In one data set the parent is B1. Put plainly: protein stability index of a GFP-peptide fusion (GPS, HEK-293T) (PSI 1-6); higher = more stable. Particulars: c terminus: a fixed tail appended.
Consider VVAYLALAALSWTISFRIYKSVLQ, for which the protein stability index worked out at 3.1. Take VVAYLALAALSTTISFRIYKSVLQ: the protein stability index is 1.95.

For the variant VVAYLALEALSATISFRIYKSVLQ, the protein stability index stood at 2.46.

As for VVAYLALIALSATISFRIYKSVLQ, the protein stability index came out at 3.23. Same read-out and setting: with VVAYLALQALSATISFRIYKSVLQ the figure was 4.3. On the same count and under the same terms, for VVAYLALRALSATISFRIYKSVLQ the value was 2.18; for VVAYLALCALSATISFRIYKSVLQ, 1.26.

Regarding VVAYLALKALSATISFRIYKSVLQ, the protein stability index was determined as 2.2. Still for that read-out and setting: for VVAYLALTALSATISFRIYKSVLQ the value was 2.32. On the same count and under the same terms, for VVMYLALAALSATISFRIYKSVLQ the value was 2.6; for VVEYLALAALSATISFRIYKSVLQ, 3.04. Take VVYYLALAALSATISFRIYKSVLQ: the protein stability index turned out to be 3.35. With VVHYLALAALSATISFRIYKSVLQ, the protein stability index was determined as 2.2. Consider VVGYLALAALSATISFRIYKSVLQ, for which the protein stability index turned out to be 1.88.

Consider VVFYLALAALSATISFRIYKSVLQ, for which the protein stability index turned out to be 2.82. Same read-out and setting: for VVVYLALAALSATISFRIYKSVLQ the value was 2.16. For the variant VVAYLALAALSATISHRIYKSVLQ, the protein stability index turned out to be 3.82.

VVAYLALAALSATISERIYKSVLQ: the protein stability index was 1.76. Take VVAYLALAALSATISFRIYKSELQ: the protein stability index turned out to be 3.42. For VVAYLALAALSATISFRIYKSRLQ, the protein stability index turned out to be 2.44.

VVAYLALAALSATISFRIYKSALQ: the protein stability index amounted to 3.36. Still for that read-out and setting: for VVAYLALAALSATISFRIYKSILQ the value was 1.83; for VVAYLALAALSATISFRIYKSCLQ, 3.58.

Turning to VVAYLALAALSATISFRIYKSWLQ, the protein stability index came out at 4.26. Same read-out and setting: with VVAYLALAALSATISFRIYKSTLQ the figure was 2.38.

On to VVAYVALAALSATISFRIYKSVLQ, for which the protein stability index came out at 1.63. In the case of VVAYYALAALSATISFRIYKSVLQ, the protein stability index was 1.83. Turning to VVAYNALAALSATISFRIYKSVLQ, the protein stability index amounted to 2.34. On the same count and under the same terms, for VVAYAALAALSATISFRIYKSVLQ the value was 2.47.

Take VVAYDALAALSATISFRIYKSVLQ: the protein stability index came out at 2.42. VVAYPALAALSATISFRIYKSVLQ: the protein stability index came out at 2.31. On to VVAYLARAALSATISFRIYKSVLQ, for which the protein stability index is 2.26. Still for that read-out and setting: for VVAYLAMAALSATISFRIYKSVLQ the value was 2.91; for VVAYLAFAALSATISFRIYKSVLQ, 2.47. Turning to VVAYLATAALSATISFRIYKSVLQ, the protein stability index amounted to 2.52. Regarding VVAYLAGAALSATISFRIYKSVLQ, the protein stability index is 3.96. In the case of VVAYLAAAALSATISFRIYKSVLQ, the protein stability index amounted to 3.97. Take VVAYLALAALSATISFRIFKSVLQ: the protein stability index was 1.46. Same read-out and setting: with VVAYLALAALSATISFRIMKSVLQ the figure was 2.3; with VVAYLALAALSATISFRIHKSVLQ, 2.75; with VVAYLALAALSATISFRIPKSVLQ, 2.41. Still for that read-out and setting: for VVAYLALAALSATISFRICKSVLQ the value was 2.46; for VVAYLALAALSATTSFRIYKSVLQ, 2.12. The same measure, in the same setting: for VVAYLALAALSATHSFRIYKSVLQ the value was 2.72; for VVAYLALAALSATKSFRIYKSVLQ, 1.96; for VVAYLALAALSATGSFRIYKSVLQ, 2.49.

Regarding VVAYLALAALSATLSFRIYKSVLQ, the protein stability index is 1.7. The same measure, in the same setting: for VVAYLALAALSATASFRIYKSVLQ the value was 2.8.

In the next data set the parent is B2. The data set is described as above. The settings on record: c terminus: a fixed tail appended.
As to FAAPSPATTASPAKVDSSGVIDLS, the protein stability index turned out to be 3.77.

As to FAAPSPATTASPAKVDSSGVIDLA, the protein stability index was 4.03. As for FAAPSPATTASPAKVDSSGVIDLR, the protein stability index came to 3.56. The same measure, in the same setting: with FAAPSPATTASPATVDSSGVIDLF the figure was 2.38; with FAAPSPATTASPANVDSSGVIDLF, 2.52. For the variant FAAPSPATTASPAKHDSSGVIDLF, the protein stability index worked out at 2.32. On to FAAPSPATTASPAKVDSSSVIDLF, for which the protein stability index came to 2.58.

Take FAAPSPATTASPAKVDSSGVLDLF: the protein stability index came out at 2.65. Regarding FAAPSPATTTSPAKVDSSGVIDLF, the protein stability index was found to be 2.36. Take FAAPSPATTHSPAKVDSSGVIDLF: the protein stability index turned out to be 2.29. As for FAAPSPATTCSPAKVDSSGVIDLF, the protein stability index turned out to be 1.94.

For the variant FAAPSPATTESPAKVDSSGVIDLF, the protein stability index came to 2.56.

In the case of FAAPSPATTASPAKVDSSGPIDLF, the protein stability index was 2.79. Same read-out and setting: for FAAPSPDTTASPAKVDSSGVIDLF the value was 2.25. AAAPSPATTASPAKVDSSGVIDLF: the protein stability index came out at 3.95. As to FAAPSPATTASPCKVDSSGVIDLF, the protein stability index is 2.29. Turning to FAAPSPATTASPHKVDSSGVIDLF, the protein stability index worked out at 2.3.

Take FAAPSPATTASPAKVDWSGVIDLF: the protein stability index turned out to be 1.63. Still for that read-out and setting: with FAAPSPATTASPAKVDISGVIDLF the figure was 1.7; with FAAPSPATTASPAKVDHSGVIDLF, 2.71; with FAAPSPATFASPAKVDSSGVIDLF, 1.63.

Take FAAPSPATKASPAKVDSSGVIDLF: the protein stability index came out at 2.91. On the same count and under the same terms, for FAAPSPATLASPAKVDSSGVIDLF the value was 2.25; for FDAPSPATTASPAKVDSSGVIDLF, 3.57; for FWAPSPATTASPAKVDSSGVIDLF, 1.99. The same measure, in the same setting: for FAAPSPATTASPAKVDSSGVIMLF the value was 2.81. As for FAAPSPATTASPAKVDSSGVIGLF, the protein stability index is 1.75.

For the variant FAAPSPATTAWPAKVDSSGVIDLF, the protein stability index was 1.33. FAAPSPATTADPAKVDSSGVIDLF: the protein stability index is 2.73.

On to FAAPSPATTAMPAKVDSSGVIDLF, for which the protein stability index is 2.28. Same read-out and setting: with FAAPSPATTAHPAKVDSSGVIDLF the figure was 2.08. Take FAAPSPATTASPAKVWSSGVIDLF: the protein stability index was found to be 1.46.

With FAAPSPATTASPAKVRSSGVIDLF, the protein stability index amounted to 2.03. As to FAAFSPATTASPAKVDSSGVIDLF, the protein stability index amounted to 1.61. Regarding FAAKSPATTASPAKVDSSGVIDLF, the protein stability index came to 2.08. On the same count and under the same terms, with FAAGSPATTASPAKVDSSGVIDLF the figure was 1.95; with FAAESPATTASPAKVDSSGVIDLF, 2.23; with FAAPSPATTASPAKVDSFGVIDLF, 1.67.

FAAPSPATTASPAKVDSIGVIDLF: the protein stability index was determined as 1.9. As to FAAPSPATTASTAKVDSSGVIDLF, the protein stability index came to 2.15. Same read-out and setting: with FAAPSPATTASIAKVDSSGVIDLF the figure was 2.08.

As to FAAPSPATTASMAKVDSSGVIDLF, the protein stability index was 2.17. On to FAAPSPATTASPAKVDSSGVIDMF, for which the protein stability index was 3.25. On the same count and under the same terms, with FAAPSPATTASPAKVDSSGVIDFF the figure was 2.29; with FAAPSPATTASPAKVDSSGVIDCF, 2.79. On the same count and under the same terms, with FAAPLPATTASPAKVDSSGVIDLF the figure was 2.81.

Source of the values: the supplement of paper PMC10567573.
